{"source": "patent US20250355001A1", "about": "(GTINVENT, published 2025)", "binders": {"B1": {"name": "3aG3 scAb (scFv, not shown: small tags and cut ends)", "scFv": "QVQLQESGPSLVKPSQTLSLTCTVSGFSLSSNGVGWVRQAPGKVPEWVGDISSSGKAYANPALKSRLSITRDTAKTQVFLSLSSVTTEDTAVYYCVRCRDGGVSYGYDIDYWGPGLLVTVSSEGKSSGASGESKVDDQAVLTQPPSVSGSPGQRVSITCSGSSSNIGGGNYLSWFQQVPGSAPKLLIYGATSRASGVPDRFSGSRSGNTATLTISSLQAEDEADYYCASFDTSSGGIFGAGTRLTVLG", "notes": "scAb"}, "B2": {"name": "NS1G7 scAb (scFv, not shown: small tags and cut ends)", "scFv": "QVQLQESGPSLVKPSQTLSLTCTVSGFSLTSYGVGWVRQAPGKTLEWISSISSGGTTFYNPALKSRLSITRDTSESQVSLSLSSVTTEDTAVYYCTRDVHIYYNDYGAAYGDRDYWGPGLLVTVSSEGKSSGASGESKVDDQAVVTQPPSVSGSPGQRVSITCSGSSSNIGGGNYVSWYQQLPGSGLRTLIYGTTSRASGVPDRFSGSGSGNTATLTISSLQAEDEADYYCASYDTNSGSVFGSGTRLTVLG", "notes": "scAb"}, "B3": {"name": "CB7 mAb (antibody, mouse IgG2a, V domains shown)", "VH": "QVQLQESGPSLVKPSQTLSLTCTVSGFSLTNYRVGWVRQAPGKALEWVSNIRSGGTTWYNPALKSRLSITADTSKSQVSLSLSSVTTEDTAVYYCARDSSGDLYAYDYWGPGLLVTVSS", "VL": "QAVLTQPSSVSRSLGQSVSMTCSGSSSNVGYGNYMAWFQQVPGSAPKLLIYGATSRASGVPDRFSGSRSGNTATLTISSLQAEDEADYYCASYDSTSGGVFGSGTRLTVLG", "notes": "sheep-mouse IgG2a chimeric mAb; also called CB7 antibody"}, "B4": {"name": "CB2 scAb (scFv, not shown: small tags and cut ends)", "scFv": "QVQLQESGPSLVKPSQTLSLTCTVSGFSLSTNSVGWVRQAPGKAPEWVAGIDTDGEEGFNPVLKSRLSITRDTSKSQVSLSLSNVTSEDTAVYYCGRSYRTDGLAYGYVQAIDYWGPGLLVTISSEGKSSGASGESKVDDQSVLTQPSSVSGSPGQTVSITCSGSYIGSSGVGWFQQLPGSGLRTIIVASDGRPSGVPDRFSMSKSGNTATLTISSLQAEDEADYFCGSSDRTQYTGLFGSGTRLTVLG", "notes": "scAb"}, "B5": {"name": "S1F4 scAb (scFv, not shown: small tags and cut ends)", "scFv": "QVQLQESGPSLVKPSQTLSLTCTVSGFSLSSNSVGWVRQAPGKAPEWVAGIDTDGEEGYNPALNSRLSITRDTSKSQVSLSLSSVTSEDTAVYYCVRSYRADGLAYGYVQAIDYWGPGLLLTISSEGKSSGASGESKVDDQAVVTQPSSVSGSLGQRVSITCSGSFIGISSVGWFQQLPGSGLRTVIVASDGRPSGVPDRFSNSKSGNTATLTISSLQAEDEADYFCGSSDRTQYTGVFGSGTRLTVLG", "notes": "scAb"}}, "key": {"tau fragment 1-49": {"molecular_target": "T1, tau fragment 1-49 (human)", "T1 construct": "also called Tau 1-49", "T1 peptide": "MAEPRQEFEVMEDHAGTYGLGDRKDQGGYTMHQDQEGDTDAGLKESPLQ", "test": "direct ELISA", "experimental": "(§1) A series of binding ELISA was performed using various truncated versions of the tau protein and 13mer peptide libraries spanning the entire hT40 molecule for mapping the epitopes of anti-tau scAbs (Full list of protein antigens used is given in Table 14). In general, ELISA plates were coated with 1 μg/ml hT40 or dGA or dGAE or other truncated versions of the protein and in the case of biotinylated peptides, plates were coated with 5 μg/ml Streptavidin followed by 1 μg/ml biotinylated peptide. The plates were blocked with 2% MPBS and scAb samples added at desired starting concentrations and double diluted across the plate. Binding was detected using anti-Human C Kappa HRP conjugated secondary antibody and the resulting immunoreaction was developed and absorbance values measured as described above."}, "tau fragment 1-111": {"molecular_target": "tau fragment 1-111 (human, UniProt P10636 1-111)", "test": "direct ELISA", "experimental": "as §1"}, "[1]": {"molecular_target": "T2, full length human tau protein 2N4R (hT40) (human, UniProt P10636 1-758)", "T2 construct": "recombinant; also called T441", "test": "SPR, scAb captured, tau analyte", "method_in_brief": "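scAb captured on flow cell 2 of an antibody-coated chip, flow cell 1 as reference; tau analyte injected 120 s association, 420 s dissociation, glycine pH 2.0 regeneration, in multi-cycle or single-cycle kinetics format. Responses fitted to a 1:1 binding model for kinetics and affinity.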"}, "[2]": {"molecular_target": "T2, full length human tau protein 2N4R …", "test": "ELISA", "experimental": "as §1"}, "dGAE (tau 297-391) [3]": {"molecular_target": "T3, dGAE (tau 297-391) (human, UniProt P10636 614-708)", "T3 construct": "monomer; also called dGAE95", "test": "ELISA", "experimental": "as §1"}, "dGA (tau 297-390)": {"molecular_target": "dGA (tau 297-390) (human, UniProt P10636 614-707)", "test": "ELISA", "experimental": "as §1"}, "tau fragment 337-368": {"molecular_target": "tau fragment 337-368 (human)", "sequence (peptide, as listed by the source)": "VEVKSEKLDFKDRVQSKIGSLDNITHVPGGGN", "test": "direct ELISA"}, "tau fragment 275-305": {"molecular_target": "tau fragment 275-305 (human)", "sequence (peptide, as listed by the source)": "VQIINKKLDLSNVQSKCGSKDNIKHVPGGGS", "test": "direct ELISA"}, "[4]": {"molecular_target": "T4, human tau (hT40) with P301S and G335D of Line 66 mice (human, UniProt P10636 1-758)", "T4 construct": "transgene product in brain homogenate or plasma; also called L66 human tau", "T4 sequence (P10636 other isoform, or with tags, fused parts or gaps P301S G335D P301S G335D limits assumed)": "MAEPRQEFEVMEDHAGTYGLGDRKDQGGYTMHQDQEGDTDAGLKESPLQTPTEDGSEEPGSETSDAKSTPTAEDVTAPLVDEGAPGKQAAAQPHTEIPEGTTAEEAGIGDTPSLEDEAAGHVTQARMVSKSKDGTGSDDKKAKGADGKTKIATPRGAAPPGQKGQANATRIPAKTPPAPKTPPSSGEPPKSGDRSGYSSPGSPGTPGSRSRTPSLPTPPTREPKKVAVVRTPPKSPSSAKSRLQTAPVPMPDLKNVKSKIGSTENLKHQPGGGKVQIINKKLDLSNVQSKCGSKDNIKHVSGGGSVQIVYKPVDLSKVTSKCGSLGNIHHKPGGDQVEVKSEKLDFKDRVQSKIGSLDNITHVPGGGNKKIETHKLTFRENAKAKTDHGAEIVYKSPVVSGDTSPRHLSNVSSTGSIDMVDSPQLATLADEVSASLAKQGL", "test": "Western blot"}, "mouse tau": {"molecular_target": "T5, mouse tau (mouse, UniProt P10637 2-733)", "T5 construct": "endogenous protein of mouse brain or plasma; also called endogenous mouse tau", "T5 sequence (P10637 other isoform, or with tags, fused parts or gaps limits assumed)": "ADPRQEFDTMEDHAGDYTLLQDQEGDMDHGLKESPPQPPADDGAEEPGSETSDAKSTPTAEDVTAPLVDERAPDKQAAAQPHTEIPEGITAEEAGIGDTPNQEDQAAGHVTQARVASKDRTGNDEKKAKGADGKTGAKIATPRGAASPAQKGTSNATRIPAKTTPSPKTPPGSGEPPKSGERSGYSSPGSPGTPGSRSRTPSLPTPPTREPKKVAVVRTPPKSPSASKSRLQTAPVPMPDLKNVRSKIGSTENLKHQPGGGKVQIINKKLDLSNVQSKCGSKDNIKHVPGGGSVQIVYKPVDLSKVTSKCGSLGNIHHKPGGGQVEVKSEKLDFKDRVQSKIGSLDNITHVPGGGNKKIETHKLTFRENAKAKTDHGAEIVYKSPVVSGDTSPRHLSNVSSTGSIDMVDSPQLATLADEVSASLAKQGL", "test": "Western blot of brain homogenates"}, "[5]": {"molecular_target": "T6, human tau fragment 296-390 of Line 1 mice (human, UniProt P10636 613-707)", "T6 construct": "also called L1 fragment; 10-kDa tau fragment", "test": "Western blot of brain homogenates"}, "[6]": {"molecular_target": "T2, full length human tau protein 2N4R …", "test": "SPR, hT40 immobilised, mAb analyte", "experimental": "For anti-tau mAb SPR measurements, htau40 was conjugated to the surface of a CM5 sensor chip using amine coupling as explained previously. Briefly, 2 μg/mL htau40 in 10 mM Sodium acetate buffer (pH 4.0) was passed over the activated chip surface (EDC/NHS) in flow cell 2 for a period for 45 s followed by blocking with 1 M ethanolamine-HCl PH 8.5. Flow cell 1 was set up as reference control and blocked simultaneously. Final immobilisation level of htau40 (Rmax) was approximately 250 RU. […] The mAb was added for a 120 s association period and 600 s dissociation period followed by a regeneration cycle of 30 s injection of glycine buffer pH 1.5 in between each cycle. Binding responses were analysed in Biacore X100 evaluation software and data fitted to a 1:1 binding model to obtain kinetic and affinity characterisation."}, "aggregated dGAE": {"molecular_target": "T7, aggregated dGAE (human, UniProt P10636 614-708, limits assumed)", "T7 construct": "dGAE aggregated in vitro with DTT, 700 rpm, 37 C, 24 h; also called dGAE aggregates; dGAE agg", "test": "capture ELISA, mAb coated at 1 µg/ml, S1G2 scAb detection"}, "tau fragment 348-441": {"molecular_target": "tau fragment 348-441 (human, UniProt P10636 665-758)", "sequence (P10636 665-758)": "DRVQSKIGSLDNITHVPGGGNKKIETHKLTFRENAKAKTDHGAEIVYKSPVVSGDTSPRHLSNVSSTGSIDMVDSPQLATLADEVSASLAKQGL", "test": "direct ELISA"}, "[7]": {"molecular_target": "T2, full length human tau protein 2N4R …", "test": "hT40 ELISA"}, "dGAE (tau 297-391) [8]": {"molecular_target": "T3, dGAE (tau 297-391)", "test": "direct ELISA"}, "tau fragment 369-390": {"molecular_target": "T8, tau fragment 369-390 (human)", "T8 peptide": "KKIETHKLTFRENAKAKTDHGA", "test": "direct ELISA"}, "tau fragment 369-391": {"molecular_target": "T9, tau fragment 369-391 (human)", "T9 peptide": "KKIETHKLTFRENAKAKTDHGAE", "test": "direct ELISA"}}, "data": [{"binder": "B1", "values": [{"measurement": "EC50 (read off the curve)", "setting": "tau fragment 1-49", "value": "~1", "unit": "µg/mL"}, {"measurement": "EC50 (read off the curve)", "setting": "tau fragment 1-111", "value": "~0.5", "unit": "µg/mL"}, {"measurement": "Kd", "setting": "[1]", "value": 6.1, "unit": "nM"}, {"measurement": "koff", "setting": "[1]", "value": 0.000387, "unit": "s⁻¹"}, {"measurement": "kon", "setting": "[1]", "value": 62900, "unit": "M⁻¹ s⁻¹"}]}, {"binder": "B2", "values": [{"measurement": "binding result", "setting": "[2]", "value": "binds"}, {"measurement": "binding result", "setting": "dGAE (tau 297-391) [3]", "value": "binds"}, {"measurement": "binding result", "setting": "dGA (tau 297-390)", "value": "binds"}, {"measurement": "binding result", "setting": "tau fragment 337-368", "value": "binds"}, {"measurement": "binding result", "setting": "tau fragment 275-305", "value": "binds"}]}, {"binder": "B3", "values": [{"measurement": "binding result", "setting": "[4]", "value": "binds"}, {"measurement": "binding result", "setting": "mouse tau", "value": "no binding"}, {"measurement": "binding result", "setting": "[5]", "value": "no binding"}, {"measurement": "Kd", "setting": "[6]", "value": 3.7, "unit": "nM"}, {"measurement": "koff", "setting": "[6]", "value": 0.00945, "unit": "s⁻¹"}, {"measurement": "kon", "setting": "[6]", "value": "2.57e+06", "unit": "M⁻¹ s⁻¹"}, {"measurement": "binding result", "setting": "aggregated dGAE", "value": "no binding (tested: 800 nM)"}]}, {"binder": "B4", "values": [{"measurement": "binding result", "setting": "[2]", "value": "binds"}, {"measurement": "binding result", "setting": "tau fragment 348-441", "value": "binds"}]}, {"binder": "B5", "values": [{"measurement": "EC50 (read off the curve)", "setting": "[7]", "value": "~0.05", "unit": "µg/mL"}, {"measurement": "EC50 (read off the curve)", "setting": "dGAE (tau 297-391) [8]", "value": "~0.3", "unit": "µg/mL"}, {"measurement": "EC50 (read off the curve)", "setting": "tau fragment 369-390", "value": "~2", "unit": "µg/mL"}, {"measurement": "binding result", "setting": "tau fragment 369-391", "value": "binds"}]}]}
